Data as given in paper PMC2919706.

Experiments:
Test in all cases: EMSA
[1] = target: Rad52 (Saccharomyces cerevisiae, UniProt P06778)
[2] = target: Rad52 (K43,44R) (Saccharomyces cerevisiae, UniProt P06778 1-471, K10R;K11R)
[3] = target: Rad52 (K253R) (Saccharomyces cerevisiae, UniProt P06778 1-471, K220R)
[4] = target: Rad52 (K43,44,253R) (Saccharomyces cerevisiae, UniProt P06778 1-471, K10R;K11R;K220R)

Measured: binding result

AGCTACCATGCCTGCACGAATTAAGCAATTCGTAATCATGGTCATAGCT (ssDNA) [49-mer ssDNA (Oligo-3)]
binds: all assays above
